Where two headings read alike, the source gives them in different places.

Experiment [1] addresses T1, MukB (E. coli, UniProt P22523 1-1486).
T1 chain: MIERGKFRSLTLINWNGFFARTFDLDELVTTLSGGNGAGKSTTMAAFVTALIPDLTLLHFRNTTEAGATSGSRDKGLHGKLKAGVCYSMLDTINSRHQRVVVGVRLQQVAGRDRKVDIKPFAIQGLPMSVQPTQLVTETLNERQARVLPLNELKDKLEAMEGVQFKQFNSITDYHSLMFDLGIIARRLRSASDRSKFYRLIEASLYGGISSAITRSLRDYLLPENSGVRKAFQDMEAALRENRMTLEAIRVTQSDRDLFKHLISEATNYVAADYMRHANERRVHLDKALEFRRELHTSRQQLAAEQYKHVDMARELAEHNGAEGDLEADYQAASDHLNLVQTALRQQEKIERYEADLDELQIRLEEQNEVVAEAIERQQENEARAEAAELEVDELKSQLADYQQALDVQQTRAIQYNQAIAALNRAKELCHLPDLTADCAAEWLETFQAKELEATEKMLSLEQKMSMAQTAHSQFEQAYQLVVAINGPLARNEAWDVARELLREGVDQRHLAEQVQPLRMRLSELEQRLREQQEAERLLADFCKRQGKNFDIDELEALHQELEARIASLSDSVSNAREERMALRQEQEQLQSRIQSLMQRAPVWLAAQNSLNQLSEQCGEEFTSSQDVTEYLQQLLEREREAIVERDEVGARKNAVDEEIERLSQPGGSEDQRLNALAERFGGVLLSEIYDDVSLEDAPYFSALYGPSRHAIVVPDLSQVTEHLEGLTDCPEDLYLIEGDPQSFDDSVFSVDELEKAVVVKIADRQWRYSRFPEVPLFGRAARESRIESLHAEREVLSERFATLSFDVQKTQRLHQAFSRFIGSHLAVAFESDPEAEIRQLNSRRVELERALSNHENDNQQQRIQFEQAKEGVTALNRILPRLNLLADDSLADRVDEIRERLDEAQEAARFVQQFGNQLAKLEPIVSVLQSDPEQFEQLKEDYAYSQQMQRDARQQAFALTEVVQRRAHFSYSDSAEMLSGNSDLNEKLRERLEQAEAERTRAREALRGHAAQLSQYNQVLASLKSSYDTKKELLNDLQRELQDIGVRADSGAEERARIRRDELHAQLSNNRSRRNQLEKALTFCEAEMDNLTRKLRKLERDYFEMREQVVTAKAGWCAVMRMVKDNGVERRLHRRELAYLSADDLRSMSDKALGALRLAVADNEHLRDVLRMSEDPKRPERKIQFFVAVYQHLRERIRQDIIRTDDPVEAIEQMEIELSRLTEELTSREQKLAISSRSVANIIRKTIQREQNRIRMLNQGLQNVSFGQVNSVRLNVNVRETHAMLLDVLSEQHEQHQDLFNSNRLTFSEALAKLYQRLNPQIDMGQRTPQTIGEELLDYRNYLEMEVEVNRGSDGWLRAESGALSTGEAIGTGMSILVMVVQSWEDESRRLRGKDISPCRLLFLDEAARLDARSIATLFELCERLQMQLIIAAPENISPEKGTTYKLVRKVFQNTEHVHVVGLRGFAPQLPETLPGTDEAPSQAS

The target of experiment [2] is T1, MukB. The experiment is described as follows: FP.

B1: Cy5 labelled FN2 (domain or fragment)
chain: MSEFSQTVPELVAWARKNDFSISLPVDRLSFLLAVATLNGERLDGEMSEGELVDAFRHVSDAFEQTSETIGVRANNAINDMVRQRLLNRFTSEQAEGNAIYRLTPLGIGITDYYIRQREFSTLRLSMQLSIVAGELKRAADAAEEGGDEFHWHRNVYAPLKYSVAEIFDSIDLTQRLMDEQQQQVKDDIAQLLNKDWRAAISSCELLLSETSGTLRELQDTLEAAGDKLQANLLRIQDATMTHDDLHFVDRLVFDLQSKLDRIISWGQQSIDLWIGYDRHVHKFIRT
modifications: Cy5 label (site not stated)
For B1, in experiment [1], binding was put at a Kd of 26 nM.

B2: Cy5 labelled FN3 (domain or fragment)
chain: REFSTLRLSMQLSIVAGELKRAADAAEEGGDEFHWHRNVYAPLKYSVAEIFDSIDLTQRLMDEQQQQVKDDIAQLLNKDWRAAISSCELLLSETSGTLRELQDTLEAAGDKLQANLLRIQDATMTHDDLHFVDRLVFDLQSKLDRIISWGQQSIDLWIGYDRHVHKFIRT
modifications: Cy5 label (site not stated)
Consider B2, for which the affinity in experiment [2], expressed as Kd, was 21 nM. This lies in the double-digit nanomolar range.

B3: Cy5 labelled FC2 (domain or fragment)
chain: AIDMDKNRVFAQRLRQSVQTYFDEPWALTYANADRLLDMRDEEMALRDEEVTGELPEDLEYEEFNEIREQLAAIIEEQLAVYKTRQVPLDLGLVVREYLSQYPRARHFDVARIVIDQAVRLGVAQADFTGLPAKWQPINDYGAKVQAHVIDKY
modifications: Cy5 label (site not stated)
In the case of B3, the affinity in experiment [2], expressed as Kd, was 23 nM. This Kd and that of the molecule before are within 1.5-fold of each other.

B4: Cy5 labelled FN10 (domain or fragment)
chain: MSEFSQTVPELVAWARKNDFSISLPVDRLSFLLAVATLNGERLDGEMSEGELVDAFRHVSDAFEQTSETIGVRANNAINDMVRQRLLNRFTSEQAEGNAIYRLTPLGIGITDYYIRQREFSTLRLSMQLSIVAGELKRAADAAEEGGDEFHWHRNVYAPLKYSVAEIFDSIDLTQRLMDEQQQQVKDDIAQLLNKDWRAAISSCELLLSETSGTLRELQDTLEAAGDKLQANLLRIQDATMTHDDLHFVDRLVFDLQSKLDRIISWGQQSIDLWIGYDRHVHKFIRTAIDMDKNRVFAQRLRQSVQTYFDEPWALTYANADRLLDMRDEEMALRDEEVTGELPED
modifications: Cy5 label (site not stated)
Regarding B4, the Kd (commonly the constant that tells how readily two partners part at equilibrium) in experiment [1] came out at 10 nM.

(Values after publication PMC5812716 (2018).)
